Measurements reported in the RNAGym collection of RNA variant scans (doi:10.1073/pnas.2313332121).
This sample holds only a part of the variants without activity.

B1: TPR 5TU (parent)
chain: GGAUCUUCUCGAUCUAACAAAAAAGACAAAUCUGCCACAAAGCUUGAGAGCAUCUUCGGAUGCAGAGGCGGCAGCCUUCGGUGGCGCGAUAGCGCCAACGUUCUCAACUAUGACACGCAAAACGCGUGCUCCGUUGAAUGGAGUUUAUCAUG

Variants of: B1
Test: polymerase ribozyme fitness, log enrichment relative to wild type (log ratio); higher = more active; in vitro selection for triplet polymerase activity
Method in brief: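 Each subunit of a heterodimeric triplet polymerase ribozyme was mutagenized into a library by PCR, transcribed, and subjected to one round of in vitro selection, run in triplicate. Libraries were annealed with a biotinylated primer, the partner subunit and triplets, incubated frozen at −7 °C, and extended constructs were gel-excised, captured on streptavidin beads and recovered by RT-PCR. Input and output libraries were sequenced on Illumina, keeping genotypes with ≥10 input reads and ≥1 read per output. Fitness is log base 2 of genotype enrichment divided by wild-type enrichment, from inverse-variance-weighted replicate averages.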

| Variant | polymerase ribozyme fitness (log ratio) |
| --- | --- |
| GGAUCUUCUGGAUCUAACAAAAAAGACAAAUCUUCCACAAAGCUUGAGAGCAUCUUCGGAUGCAGAGGCGGCAGCCUUCGGUGGAGCGAUAGCGCCAACGUUCUCAACUAUGACACGCAAAACGCGUGCUCCGUUGAAUGGAGUUUAUCAUG | ≤ -4.2 |
| GGAUCUUCUCGAUCUAACAAAAAAGACAAAUCUGCCACAAAGCUUGAGAGCAUCAUCGGAUGCAGAGGCGGCAGCCUUCGGUGGCGCGAUAUCGCCAACGUUCUCAACUAUGACACGCAAAACUCGUGCUCCGUUGAAUGCAGUUUAUCAUG | -1.14 |
| GGAUCUUCUCGAUCUAACAAAAAAGACAAAUCUGCCACAACGCUUGAGAGCAUCUUCGGAUGCAGAGGCGGCAGCCUUCGGUGGCGCAAUAACGCCAACGUUCUCAACUAUGACUCGCAAAACGCGUGCUCCGUUGAAUGGAGUUUAUCAGG | ≤ -4.2 |
| GGAUCUUCUCGAUCUAACCAAAAAGACAAAUCUGCCACAAAGCUUGAGAGCGUCUUCGGAUGCAGAGGCGGCAGCCUUCGGUGGCGCGAUACCGCAAACGUUCUCAACUAUGACACGCAAAACGCGUGCUCCGUUGAAUGGAGUUUCUCAUG | -3.53 |
| GGAUCUUCUCGAUCGAACAAAAAAGACAAAUCUGCCACAAAGUUUGAGAGCAUCUUCGAAUGCAGAGGCGGCAGCCUUCGGUGGCGCGAUAGCUCCAACGUUCUCAACUAUGACACGCAAAACGCGUGCUCCGUUGAAUGGAGUUUAUCAUG | ≤ -4.2 |
| GGAUCUUCUCGAUCUAACAAAAAAGACAAAUCUGCCACAAAGCUUGAGAGUAUCUUCGGACGCAGAGGCGGCAGCUUUCGGUGGCGCGAUAGCCCCAACGUUCUCAACUAUGACACGCAAUACGGGUGCUCCGUUGAAUGGAGUAUAUCAUG | ≤ -4.2 |
| GGAUCUUCUCGACCUAACAAAAAAGACAAAUCUGCCACAAAGCUUGAGAGCAUCUUCGGAUGCAGAGGCGGCAGCCUUCGGUGGCGCGAUAGAGCAAACGUUCUCAACUAUGACACGCAAAACGCGUGCUCCGUUGAAUGGAGUUUAUCAUG | -3.63 |
| GGAUCUUCUCGAUCUGACAAAAAAGACAUAUCUGCCACAAAGCUAGAGAGCAUGUUCGGAUGCAGAGGCGGCAGCCUUCGGUGGCGGGAUAGCGCCAACGUUCUCAACUAUGACACGCAAAACGGGUGCUCCGUUGAAUGGAGUUUAUCAUG | ≤ -4.2 |
| GGAUCUUCUCGAUCUAACAAAAAAGACAAAUCUGCCACAAAGCUUGAGAGCAUCUUCGGUUGCAGAGGCGGCAGCCUUCGGUGGCGCGAUAGCGCUAACGUUCUCAACUAUGACACGCAAAACGCGUGCUCCGUUGAAUGGAGUUUAUCAUG | -0.416 |
| GGAUCUUCUCGAUCUAACAAAAAAGACAAAUCUGCCACAAAGCUUCAGAGCAUCUUCCGAUGCAGAGGCGGCAGCCUUCGGUCGCGCGAUAGCGCCAACGUUCUCAACUAUGACACGCAAAACGAGUGCUCCGUUGAAUGGAGUUUAUCAUG | -4.17 |
| GGAUCUUCUCGAUCUAACAAAAAAGACAAAUCUGCCACACAGCUUGAGAGCAUCUUCGGAUGCAGAGGCGGCAGGCUUCGGGGGCGCGAUAGGGCCAACGUUCUCAACUAUGACACGCAAAACGCGUGCUCCGUUGAGUCGAGUUUAUCAUG | ≤ -4.2 |
| GGAUCUUCUCGAUCUAACAAAAAAGACAAAUCUGCCACAAAGCUUGAGAGCAUCUUCGGCGGCAGAGGCGGCAGCCUUCGGUGGCGCGAUAACGCCAACGUUCUCAACUUUGACACGCAAAACGCGUGCUCCGUUGAAUGGAGUUUAUCAUG | -3.93 |
| GGAUCUUCUCGAACUAACAAAAAAGACAAAUUUGCCACAAAGCUUGAGAGCAUCUUCGGAUGCAGACGCGGCAGCCUUCGGUGGAGCGAUAGCGCCAACGUUCUUAACUAUGACACGCAAAACGCGUGCUCCGUUGAAUAGAGUUUAUCAUG | ≤ -4.2 |
| GGAUCUUCUCGAUCUAACAAAAAAGACAAAUAUGCCACAAAGCUUGAGAGCAUCUUCGGAUGCAGAGGCGGCAGCCUUCGGUGGUGCGAUAGCGCCAACGUUCUCAACUAUGACACGCAAAACGCGUGCUCCGUUGAAUGGAGUUUAUCAUG | -4.06 |
| GGAUCUUCUCGAUCUAACAAAAAAGACAAAUCUGCAACAAAGCUUAAGAGCAUCUUCGGAUGCAGAGGCGGCAGCCUUCGGUGGCGCGAUAGCGCUAACGUUCUCAACUAUGACACGCAAAACGCGUGCUCCGUUGAAUGGAGUUUAACAUG | ≤ -4.2 |
| GGAUCUUCUCGAUCUAACAAAGAAGACAAAUCUGCGACAAAGCUUGAGAGCAUCUUCGGAUGCAGAGGCGGCAGCCUUCGGUGGCGCGAUAACGCCAACGUUCUCAACUAUGACACGCAAAACGCGUGCUCCGUUGGAUGGAGUUUAUCAUG | ≤ -4.2 |
| GGAUCUUCUCGAUCUAAGAAAAAAGACAAAUCUGCCACAAAGCUUGAGAGCAACUUUGCAAGCAGAGGCGGCAGCCUUCGGUGGCGCGAUAGCGGCAACGUUCUCAACUAUGACACGCAAAACGCGUGCUCCGUUGAAUGGAGUUUAUCAUG | -3.99 |
| GGAUCUUCUCGAUCUAACAAAAACGACAAAUCUGCCACAAAGCUUGAGAGCAUCUUCGGAUGCAGAAGCGGCAGCCUUCGCUGGCGCAAUAGCGCCAACGUUCUCAACUAUGACACGCAAAACGCGUGCUCCGUUGAAUGGAGUUUAUCAUG | ≤ -4.2 |
| GGAUCUUCUCGAUUUAACAAAAAAGCCAAAUCUGCCACAAAGCUUGACAGCAGAUUCGGAUGCAGAGGCGGCAGCCUUCGGUGGCGCGAUAGAGCCAACGUUCUCAACUAUGACACGCAAAACGCGUGCUCCGUUGAAUGGAGUAUACCAUG | ≤ -4.2 |

| Variant | polymerase ribozyme fitness (log ratio) |
| --- | --- |
| GGAUCUUCUCGAUCUAACAAAAAAGACAAAUCUGCCACAAAGCUUGAGAGCAUCUUCGGAUGCAGAGGCGGCAGCCUUCGGUGGCGCGAUAGCGCCAACGGUCUCAUCUAUGACACGCAAAACGCGUGCUCCGUUGAAUGGAGUUUAUCAUG | -3.84 |
| GGAUCUUCUCGAUCUAACCAAAAAGACAAAUCUGCCACAAAGCUUGAGAGCAUCAUCGGAUGCAGAGGCGGCAGCCUUCGGUGGCGCGAUGGCGCCAACGUUCUCAACUAUGACACGCAAAACGCGUGCUCCGUUGAAUGGAGUUUAUCAUG | -2.67 |
| GGAUCUUCUCGAUCUAACAAAAUUGACAAAUCUGCCACAAAGCUUGAGAGCAUCUUCGGAUGCAGAGGCGGCAGCCUUCGGUGGCGCGAUAGCGCCAACGUUCUCAACUAUGACACGCAAAACGCGUGCUCCGUUGAAUGGAGUUUAUCAUG | -4.12 |
| GGAUCUUCUCGAUCUAACAAAAAAGACAAAUCUGCCACAAAGCUUGAGAGCGUCUUCGGAUGCAGAGGCGGCAGCCUUCGGUGGCGCGAUAGCGCCAACGUUCUCAACUAUGACACGCAAAACGCGUGCUCCGUUGAAUGGAGUUUAUCGUG | -2.55 |
| GGAUCUUCUCGAUCUAACAAAAAAGACAAAUCUGCCACAAAGCUUGAGAGCAUUUUCGGAUGCAGAGGCGGCAGCCUUCGGUGGCGCGAUAGCGCCAAUGUUCUCAACUAUGACACGCAAAACGCGUGCUCCGUUGAAUGGAGUUUAUCAUG | -0.322 |
| GGAUCUUCUCGAUGUAACAAAAAAGAUAAAUCUGCCACAAAGCUUGAAAGCAUCUUAGGUUGCAGAGGCGGCAGCCUUCGGUGGCGCCAUAGCGCCAACGUUCUCUACUAUGACACGCAAAACGCGUGCUCCGUUGAAUGGAGUUUAUCAUG | ≤ -4.2 |
| GGAUCUUCUCGAUCUAACAAAAAAGACAAAUCUGUCACAAAGCUUUAGAGCAUCUUCGGAUGCAGAGGCGGCAGCCUUCGGUGGCGCGAUAGCGCUAACGUUCUCAACUAUGACACGCAAAACGCGUGCUCCGUUGAAUGGAGUUUAUCAUG | -1.23 |
| GGAUCUUCUCGAUCUAACAAUAAAGACAAAUCUGCCACAAAGCUUGAAAGCAUCUUCGGAUGCAGAGGCGGCAGCCUUCGGGGGCGCGAUAGCGGCAACGUUCUCAACUAUGACACGCAAAACGCGUGCUCCGUUGAAUGGAGUUUAUCAUG | ≤ -4.2 |
| GGAUCUUCUCGAUCUAACAAAAAAGACAAAUCUGCCACAAAGCUUGAGAGCAUCUACGGAUGCAGAGGCGGCAGCCUUCGGUGGCGCGAUAGGGCCAACGUUCUCAACUAUGACACGCAAAACGCGUGCUCCGUUGAAUGGAGUUUAUCAUG | -3.55 |
| GGAUCUUCUCGAUCUAACAAAAAAGACAAAUCUGCCCCAAAGCUUGAGAGCAUCUUCGGAUGCAGAGGCAGCAGCCUUCGGUGGAGCGAUAAAGCCAACGUUCUCAACUAUGACACGCAAAACGCGUGCUCCGUUGAAUGGAGUUUAUCAUG | ≤ -4.2 |
| GGAUCUUCUCGAUCUAACAAAAAAGACAAAUCUGCCACAAAGCUUGAGAGCAUCUUCGGAUGCAGAGACGGCAGCCUUCGGUGGCGCGAUAGCGCUAACGUUCUCAACUAUGACACGCAAAACGCGUGCUCGGUUGAAUGGAGUUUAUCAUG | ≤ -4.2 |
| GGAUCUUCUCGAUCUAACAAAAAAGACAAAUCUGCCACAAAGCUUGAGGGCAUCUUCGGAUGCAGAGGCGGCAGCCUUCGGUGGCGCGAUAGCGCCAACGUUCUCAACUAUGACACGCAAAACGCGUGCUCCCUUGAAUGGAGUUUAUCAUG | -2.21 |
| GGAUCAUCUCGAUCUAACAAAAAAGACAAAUCUGCCACAAAGCUUGAGAGCAUCUUGGGAUGCAGAGGCGGCAGCCUUCGGUGGCGCGAUAGCGCCAACGUUCUUAACUAUGACACGCAAAACGCGUGCUCCGUUGAAUGGAGUUUAUCAUG | 0.464 |
| GGAUCUUCUCGAUCUAACAAAAAAGACACUUCUGCCACAAAGCUUGAGAGCAUCUUCGGAUGCAGAGGCGGCAGCCUUCGGUGGCGCGAUAGCGCCUACGUUUUCAACUAUGACAGGCAAAACGCGUGCUCCAUUGAAUGGAGUUUAUCAUG | ≤ -4.2 |
| GGAUCUUCUCGAUCUAACAAAAAAGACAAAUCUGCCACAAAGCUUGAGAGCAUCUUCGGAUGCAGAGGCGGCAGCCUUCGGUGACGCGAUAGCGCCUACGUUCUCAACUAUGACACGCAAAACGCGUGCUCCGUUGAAUGGAGUUUUUCAUG | 0.467 |
| GGAUCUUCUCGAUCUAACAAUAAAGACAAAUCUGCCACAAAGCUUGAGAGCAUCUUCGGAUGCAGAGGCGGCAGCCUUCGGUGGCGGGAUAGCGCCAACGUUCUCAACUAUGACACGCAAAACGCGUGCUCCGUUGAAUGGAGUUUAUCAUG | ≤ -4.2 |
| UGAUCUUCUCGAUCUAACAAAAAAGACAAAUCUGCCACAAAGCUUGAGAGCAUCUUCGGAUGCAGAGGCGGCAGCCUUCGGUGGCGCGAUAGCGCCAACGUUCUCAACUAUGACACGCAAAACGCGUGCUCCGUUGAAUGGAGUUUAUCAUG | 0.22 |
| GGAUCUUGUCGUUCUAACAAAAAAAACUAAUCUGCCACCAAGCUUGAGAGCAUCUUCCGAUGCAGAGGCGGCAGCCUUCGGUGGCGCGAUAGCUCCAACGUUCUCAACUAUGACACGCAAAACGCGUGCUCCGUUGAAUGGAGGUUAUCAUG | ≤ -4.2 |
| GGAUCUUCUCGAUCUUACAAAAAAGACAAAACUGCCACAAAGCUUGAGAGCAUCUUCGGAUGCAGAGGCGGCAGCCUUCGGUAGCGCGAUAGCGCCAACGUUCUUAACUAUGACACGCAAAACGCGUGCUCCGUUGAAUGGAGUUUAUCAUG | -1.17 |
